Test results taken from patent US20160024487.

Tests used:
[1] = target: T1, Lys(Dnp)-ATNATFYPRIVGG-Lys(Abz)
T1 chain: KATNATFYPRIVGGK

[2] = target: T2, Lys(Dnp)-ATNATVQPRIVGG-Lys(Abz)
T2 chain: KATNATVQPRIVGGK

[3] = target: T3, Lys(Dnp)-ATNATQGPRIVGG-Lys(Abz)
T3 chain: KATNATQGPRIVGGK

[4] = target: T4, Lys(Dnp)-ATNATSYPRIVGG-Lys(Abz)
T4 chain: KATNATSYPRIVGGK

[5] = target: T5, Lys(Dnp)-ATNATRGPRIVGG-Lys(Abz)
T5 chain: KATNATRGPRIVGGK

[6] = target: T6, Lys(Dnp)-ATNATQNPRIVGG-Lys(Abz)
T6 chain: KATNATQNPRIVGGK

[7] = target: T7, Lys(Dnp)-ATNATQFPRIVGG-Lys(Abz)
T7 chain: KATNATQFPRIVGGK

B1: Human plasma purified Factor Xa (protein)
chain 1: ANSFLEEMKKGHLERECMEETCSYEEAREVFEDSDKTNEFWNKYKDGDQCETSPCQNQGKCKDGLGEYTCTCLEGFEGKNCELFTRKLCSLDNGDCDQFCHEEQNSVVCSCARGYTLADNGKACIPTGPYPCGKQTLER
chain 2: IVGGQECKDGECPWQALLINEENEGFCGGTILSEFYILTAAHCLYQAKRFKVRVGDRNTEQEEGGEAVHEVEVVIKHNRFTKETYDFDIAVLRLKTPITFRMNVAPACLPERDWAESTLMTQKTGIVSGFGRTHEKGRQSTRLKMLEVPYVDRNSCKLSSSFIITQNMFCAGYDTKQEDACQGDSGGPHVTRFKDTYFVTGIVSWGEGCARKGKYGIYTKVTAFLKWIDRSMKTRGLPKAKSHAPEVITSSPLK
B1 showed an FXa kcat/KM [1] of 71 M⁻¹ s⁻¹ and an FXa kcat/KM [2] of 250 M⁻¹ s⁻¹.

B2: Human plasma purified Factor Xa (Molecular Innovations, Inc) (protein)
chain 1: B1 chain 1
chain 2: B1 chain 2
With B2 the FXa kcat/KM [3] was 140 M⁻¹ s⁻¹, the FXa kcat/KM [4] was 13 M⁻¹ s⁻¹ and the FXa kcat/KM [5] was 680 M⁻¹ s⁻¹. It also gave an FXa kcat/KM [6] of 610 M⁻¹ s⁻¹ and an FXa kcat/KM [7] of 150 M⁻¹ s⁻¹.
